“Also recorded” adds a separate entry of the source.
What was measured:
[1] = system: CFPAC-1 cells; test: Wound healing assay (scratch assay); format: cell-based, human; conditions: 7 hours post treatment, vs control antibody GST
Protocol: Wound Healing Assay (Scratch Assay): The migratory behavior of cells was assayed by means of a wound-healing assay using a culture-insert (ibidi GmbH, Am Klopferspitz 19, Martinsried, Germany) according to the manufacturer's instruction. After 24 h the culture-inserts were removed leaving a cell-free gap (“defined as a wound”) of approx. 500 μm. The migration rate into this “wound area” was documented and measured using Carl Zeiss microscope (DeltaVision Microscopy Imaging Systems—GE Healthcare Life Sciences, USA). The migration rate was determined by percentage area covered by cells. Each analysis was performed in triplicates and was repeated two times.
(§1) GSM-192 Fab reduces cell motility in vitro: MMP-7 mediated E-Cadherin cleavage promotes cell migration^19, so it was hypothesized that an effective anti MMP-7 antibody directed to the activated enzyme should be able to impact migration.

[2] = system: CFPAC-1 cells; test: Trans-well migration assay; format: cell-based, human; conditions: 15 h post treatment, sub-lethal concentrations
Protocol: Trans-well migration assay: Cells were starved overnight in assay media (IMDM media containing only 1% serum). Cells (1×10^5) were added to the top chambers of 24-well transwell plates (BD Biosciences; 8 μm pore size), and assay media, with or without GSM-192, was added to both chambers. […] The numbers of cells in five fields were counted under 20× magnification, and the mean for each chamber determined.
as §1

[3] = system: RIP1-Tag2 mice serum (circulating MMP); test: Dot blot with RIP1-Tag2 mice serum; format: binding, mouse; conditions: serum of RIP1-Tag2 mice with late stage insulinomas, 335 times the protein of pure MMP-7 control
Protocol: A dot blot was performed by immobilizing 1, 1.5 and 2 μg zymogen and activated MMP-7 recombinant enzyme on nitrocellulose membrane pre wetted with TBST using a vacuum based manifold 96 well dot-blot system (GE 10447900 Minifold dot blot). The blocking was performed for 1 hour at room temperature with 3% BSA in TBST. The membrane was then probed for binding by antibody eluted in the earlier step by incubating overnight. The anti MMP-7 mAb used was at 2 ug/ml concentration in TBST. The membrane after 3 washes in TBST was incubated with goat anti mouse HRP antibody and developed using ECL to determine the selectivity of binding towards catalytic form only.
Serum isolated from RIP1-Tag2 mice with late stage insulinomas were used to determine if anti MMP-7 mAb would be bound and removed by circulating enzyme. […] The total serum protein loaded for this experiment was 335 times the protein concentration used for pure MMP-7 catalytic control.

B1: GSM-192: monoclonal antibody to MMP-7 binding the catalytic domain, not the zymogen; VL SEQ ID NO: 1, VH SEQ ID NO: 2 (antibody, V domains shown)
VH: EVQLQQSGPELVKPGASVKIPCKASGYTFTDYNMDWMKQSHGKSLEWIGHINPNNGGTFYNQKFKDKATFIVDKSSNTAYMELRSLTSEDTAVYFCARGGGLRRGPFAYWGQGTLVTVS
VL: DIVTQSPASLAVSLGQRATISCRASESFDSYGNTFVHWYQQKPGQPPKLLIYLVSNLESGVPAGFRGRGSRTDFTLTIDPVEADDAATYYCQQNNEDPYTFGGGTKLEIKRA
modifications: GSM-192 Heavy Chain Sequence; GSM-192 Light Chain Sequence
- cell migration / rate of wound closure [1]: significant reduction in rate of wound closure; also recorded: slowed down cell migration
- cells migrating across the transwell membrane [2]: almost by half; also recorded: reduces cells migrating across the transwell membrane significantly
- binding to total serum proteins ([3]; listed as Anti MMP-7mAb): does not bind
- binding to total serum proteins ([3]; listed as anti MMP-7 mAb): did not show any binding

Source: patent US12291578B2, “Anti-matrix metalloproteinase 7 (MMP-7) inhibitory antibody and uses thereof” (Yeda Research and Development Co. Ltd., priority 2019, dated 2025)
